Assay results as given in publication PMC3094755, “The DNA-Binding Domain of Human PARP-1 Interacts with DNA Single-Strand Breaks as a Monomer through Its Second Zinc Finger”.

Tests used:
[1] = target: T1, PARP-1 F1+F2 (24-kDa DBD) (Homo sapiens, UniProt P09874 1-214); experiment: EMSA; 400 nM DNA; FA: 50 mM Tris-HCl pH 7, 150 uM ZnSO4, 4 mM DTT, 0-200 mM NaCl, 25 C, 10 nM DNA (mutants 25 nM DNA, 25 mM NaCl); EMSA: 50 mM Tris-HCl pH 7.4, 150 uM ZnSO4, 4 mM DTT, 10% glycerol, RT incubation, gel at 4 C; NMR complexes: 50 mM Tris pH 7.0, 150 uM ZnSO4, 4 mM DTT, 37 C; conditions: protein: recombinant; single-chain dumbbell, 18 bp with central nick, two tetraloops
T1 sequence (P09874 1-214): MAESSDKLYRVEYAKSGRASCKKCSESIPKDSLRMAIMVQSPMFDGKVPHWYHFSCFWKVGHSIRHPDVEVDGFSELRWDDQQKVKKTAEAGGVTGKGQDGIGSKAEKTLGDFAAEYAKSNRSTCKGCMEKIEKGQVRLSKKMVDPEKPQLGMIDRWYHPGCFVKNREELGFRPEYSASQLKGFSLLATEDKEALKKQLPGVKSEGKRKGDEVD

PARP-1 F2 = PARP-1 F2 (Homo sapiens, UniProt P09874 103-214); experiment: EMSA; 400 nM DNA; slightly less than F1+F2; FA: 50 mM Tris-HCl pH 7, 150 uM ZnSO4, 4 mM DTT, 0-200 mM NaCl, 25 C, 10 nM DNA (mutants 25 nM DNA, 25 mM NaCl); EMSA: 50 mM Tris-HCl pH 7.4, 150 uM ZnSO4, 4 mM DTT, 10% glycerol, RT incubation, gel at 4 C; NMR complexes: 50 mM Tris pH 7.0, 150 uM ZnSO4, 4 mM DTT, 37 C; conditions: protein: recombinant; single-chain dumbbell with 1-nt gap, two tetraloops
Chain of PARP-1 F2 (P09874 103-214): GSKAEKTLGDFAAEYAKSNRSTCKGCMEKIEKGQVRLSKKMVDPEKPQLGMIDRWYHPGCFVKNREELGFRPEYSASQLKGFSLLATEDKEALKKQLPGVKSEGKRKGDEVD

[2] = target: T1, PARP-1 F1+F2 (24-kDa DBD); experiment: EMSA; 400 nM DNA; FA: 50 mM Tris-HCl pH 7, 150 uM ZnSO4, 4 mM DTT, 0-200 mM NaCl, 25 C, 10 nM DNA (mutants 25 nM DNA, 25 mM NaCl); EMSA: 50 mM Tris-HCl pH 7.4, 150 uM ZnSO4, 4 mM DTT, 10% glycerol, RT incubation, gel at 4 C; NMR complexes: 50 mM Tris pH 7.0, 150 uM ZnSO4, 4 mM DTT, 37 C; conditions: protein: recombinant; single-chain dumbbell with 1-nt gap, two tetraloops
PARP-1 F2 R138I = PARP-1 F2 R138I (Homo sapiens, UniProt P09874 103-214, R138I); experiment: as above; conditions: protein: recombinant; single-chain dumbbell with 1-nt gap, two tetraloops
Chain of PARP-1 F2 R138I (P09874 103-214 R138I): as the sequence (P09874 103-214) above, with R36I counted along it

PARP-1 F2 K141I/K142I = PARP-1 F2 K141I/K142I (Homo sapiens, UniProt P09874 103-214, K141I;K142I); experiment: as above; conditions: protein: recombinant; single-chain dumbbell with 1-nt gap, two tetraloops
Chain of PARP-1 F2 K141I/K142I (P09874 103-214 K141I/K142I): as the sequence (P09874 103-214) above, with K39I, K40I counted along it

PARP-1 F2 K131I/G135D = PARP-1 F2 K131I/G135D (Homo sapiens, UniProt P09874 103-214, K131I;G135D); experiment: as above; conditions: protein: recombinant; single-chain dumbbell with 1-nt gap, two tetraloops
Chain of PARP-1 F2 K131I/G135D (P09874 103-214 K131I/G135D): as the sequence (P09874 103-214) above, with K29I, G33D counted along it

[3] = target: T1, PARP-1 F1+F2 (24-kDa DBD); experiment: NMR; 1:1 complex; FA: 50 mM Tris-HCl pH 7, 150 uM ZnSO4, 4 mM DTT, 0-200 mM NaCl, 25 C, 10 nM DNA (mutants 25 nM DNA, 25 mM NaCl); EMSA: 50 mM Tris-HCl pH 7.4, 150 uM ZnSO4, 4 mM DTT, 10% glycerol, RT incubation, gel at 4 C; NMR complexes: 50 mM Tris pH 7.0, 150 uM ZnSO4, 4 mM DTT, 37 C; conditions: protein: recombinant; single-chain dumbbell with 1-nt gap, two tetraloops
[4] = target: T1, PARP-1 F1+F2 (24-kDa DBD); experiment: fluorescence anisotropy; 75; 50 mM Tris-HCl pH 7.0, 150 uM ZnSO4, 4 mM DTT, 25 C; NaCl 0-200 mM (T2, as in cof; 10 nM DNA) or 25 mM (T3 mutants; 25 nM DNA); conditions: protein: recombinant, label: fluorescein-dT at T8 and T30, two tetraloops
[5] = target: T1, PARP-1 F1+F2 (24-kDa DBD); experiment: fluorescence anisotropy; 50; 50 mM Tris-HCl pH 7.0, 150 uM ZnSO4, 4 mM DTT, 25 C; NaCl 0-200 mM (T2, as in cof; 10 nM DNA) or 25 mM (T3 mutants; 25 nM DNA); conditions: protein: recombinant, label: fluorescein-dT at T8 and T30, two tetraloops
[6] = target: T1, PARP-1 F1+F2 (24-kDa DBD); experiment: fluorescence anisotropy; 0; 50 mM Tris-HCl pH 7.0, 150 uM ZnSO4, 4 mM DTT, 25 C; NaCl 0-200 mM (T2, as in cof; 10 nM DNA) or 25 mM (T3 mutants; 25 nM DNA); conditions: protein: recombinant, label: fluorescein-dT at T8 and T30, two tetraloops
[7] = target: T1, PARP-1 F1+F2 (24-kDa DBD); experiment: fluorescence anisotropy; 100; 50 mM Tris-HCl pH 7.0, 150 uM ZnSO4, 4 mM DTT, 25 C; NaCl 0-200 mM (T2, as in cof; 10 nM DNA) or 25 mM (T3 mutants; 25 nM DNA); conditions: protein: recombinant, label: fluorescein-dT at T8 and T30, two tetraloops
[8] = target: T1, PARP-1 F1+F2 (24-kDa DBD); experiment: fluorescence anisotropy; 150; 50 mM Tris-HCl pH 7.0, 150 uM ZnSO4, 4 mM DTT, 25 C; NaCl 0-200 mM (T2, as in cof; 10 nM DNA) or 25 mM (T3 mutants; 25 nM DNA); conditions: protein: recombinant; label: fluorescein-dT at T8 and T30; single-chain dumbbell with central nick, two tetraloops
[9] = target: T1, PARP-1 F1+F2 (24-kDa DBD); experiment: fluorescence anisotropy; 200; 50 mM Tris-HCl pH 7.0, 150 uM ZnSO4, 4 mM DTT, 25 C; NaCl 0-200 mM (T2, as in cof; 10 nM DNA) or 25 mM (T3 mutants; 25 nM DNA); conditions: protein: recombinant; label: fluorescein-dT at T8 and T30; single-chain dumbbell with central nick, two tetraloops
[10] = target: T1, PARP-1 F1+F2 (24-kDa DBD); experiment: fluorescence anisotropy; 25; 50 mM Tris-HCl pH 7.0, 150 uM ZnSO4, 4 mM DTT, 25 C; NaCl 0-200 mM (T2, as in cof; 10 nM DNA) or 25 mM (T3 mutants; 25 nM DNA); conditions: protein: recombinant, label: fluorescein-dT at T8 and T30, two tetraloops
[11] = single-chain dumbbell with central nick
[12] = circular closed dumbbell, no nick

## CGGTCGATCGTAAGATCGACCGGCGCTGGAGCTTGCTCCAGCGC (structured_DNA, 5'-phosphate) [44-nt nicked dumbbell, 5'-phosphate]
[1]
  binding signal: ~2 fold weaker than gapped ligand

## CGGTCGATCGTAAGATCGACCGTGCGCTGGAGCTTGCTCCAGCGC (structured_DNA, 5'-phosphate) [45-nt gapped dumbbell, 5'-phosphate]
PARP-1 F2
  binding result: binds
[2]
  binding result: binds
PARP-1 F2 R138I
  binding result: no binding
PARP-1 F2 K141I/K142I
  binding result: no binding
PARP-1 F2 K131I/G135D
  binding result: no binding

## CGGTCGATCGTAAGATCGACCGTGCGCTGGAGCTTGCTCCAGCGC (structured_DNA, 3'-phosphate) [45-nt gapped dumbbell, 3'-phosphate]
[3]
  binding result: binds

## CGGTCGATCGTAAGATCGACCGTGCGCTGGAGCTTGCTCCAGCGC (structured_DNA, 5'-deoxyribose (printed as 5' ribose in text)) [45-nt gapped dumbbell, 5'-ribosylated]
[3]
  binding result: binds

## CGGTCGATCGTAAGATCGACCGCGGTCGATCGTAAGATCGACCG (structured_DNA, 5'-phosphate) [44-nt nicked symmetric dumbbell, 5'-phosphate, 2x fluorescein-dT]
[4]; [11]
  Kd: 62.4 nM
[5]; [11]
  Kd: 56.1 nM
[6]; [11]
  Kd: 48.6 nM
[7]; [11]
  Kd: 56.9 nM
[8]
  Kd: 52.4 nM
[9]
  Kd: 46.2 nM
[10]; [11]
  Kd: 54.2 nM

## CGGTCGATCGTAAGATCGACCGCGGTCGATCGTAAGATCGACCG (structured_DNA, circular, nick sealed by T4 DNA ligase) [ligated (circular) symmetric 44-nt dumbbell, 2x fluorescein-dT]
[4]; [12]
  Kd: 480 nM
[5]; [12]
  Kd: 166 nM
[6]; [12]
  Kd: 117 nM
[7]; [12]
  Kd: 1110 nM
[10]; [12]
  Kd: 134 nM
